# According to paper doi:10.1101/2022.06.27.497739:
# Like-named read-outs stand apart in the source and are kept apart here.
# Columns and labels:
# [1] = biological target: Rpt1-I191AzF-Cy3 base (budding yeast (S. cerevisiae)) (UniProt P33299); test: FRET or BRET
# [2] = biological target: Rpt1-I191AzF-Cy3 base (budding yeast (S. cerevisiae)) (UniProt P33299); test: FRET or BRET; remark: listed apart in the source
substance,measurement,setting,value
polyubiquitinated titin-I27^V15P-Tail substrate labeled with Cy5 on its unstructured initiation domain (from UniProt P0CG63 1-76),time constant (τ) of tail engagement,[1],10.4 s
same,time constant (τ) of tail engagement,[2],16.4 s
